The source of these data is patent US20240018268A1 (JUNO THERAPEUTICS, published 2024).

Test [1] has as its target T1, anti-CD19 (FMC63-derived) chimeric antigen receptor (CAR), expressed on T cells.
T1 construct: Whole CAR on the surface of transduced human T cells/PBMCs, co-expressed with EGFRt from the same construct (T2A); treated here as one molecule; also called anti-CD19 (FMC63) CAR; FMC63-derived CAR
Nature of the test: flow cytometry, CAR T cells spiked into human PBMCs. How it is done: The anti-CD19 CAR expressing cells were spiked in to a sample of cells containing healthy human peripheral blood mononuclear cells (PBMCs). The resulting cell compositions were incubated with different concentrations of the anti-CD19 FMC63 scFv-specific anti-ID B1 or anti-ID B2 antibodies. As a control, samples of each condition were also incubated with a concentration of anti-EGFR antibody, capable of detecting the EGFRt surrogate marker on the transduced cells. Control samples included those only containing the PBMCs without the addition of added CAR− expressing T cells. Geometric mean fluorescence intensity (MFI) was quantified in positively labeled cells to assess antibody staining.
Background: Flow cytometry measures light scatter and fluorescence of single cells or particles in a stream.

For test [2], the target named is T2, anti-CD19 (SJ25C1-derived) chimeric antigen receptor (CAR), expressed on T cells or Jurkat cells (human, UniProt P10747 153-179; P10747 180-220; P20963 52-163, limits assumed).
T2 construct: domain: transmembrane domain;domain: intracellular signaling domain;domain: signaling domain; Whole CAR on the surface of transduced human T cells, PBMCs or Jurkat cells; also called anti-CD19 (SJ25C1) CAR; SJ25C1-derived CAR
T2 sequence (P10747 other isoform, or with tags, fused parts or gaps mutant limits assumed): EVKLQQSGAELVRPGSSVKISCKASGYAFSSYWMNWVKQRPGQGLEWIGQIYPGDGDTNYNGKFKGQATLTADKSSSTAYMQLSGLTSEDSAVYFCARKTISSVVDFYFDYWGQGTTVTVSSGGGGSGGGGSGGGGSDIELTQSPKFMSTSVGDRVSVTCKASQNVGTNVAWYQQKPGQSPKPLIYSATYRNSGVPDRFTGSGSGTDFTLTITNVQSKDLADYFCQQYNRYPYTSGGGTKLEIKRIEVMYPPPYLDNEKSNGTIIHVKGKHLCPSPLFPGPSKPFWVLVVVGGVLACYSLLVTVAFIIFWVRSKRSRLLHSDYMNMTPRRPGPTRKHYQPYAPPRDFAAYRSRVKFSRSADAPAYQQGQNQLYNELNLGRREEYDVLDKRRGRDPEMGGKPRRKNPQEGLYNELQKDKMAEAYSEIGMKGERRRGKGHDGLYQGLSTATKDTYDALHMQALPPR
Description: flow cytometry, biotin-conjugated antibody and PE-streptavidin on CAR-transduced cells. The protocol:
Hybridoma fusion clones were generated and 12 candidate clones were further characterized by flow cytometry. Peripheral blood mononuclear cells were isolated from human subjects and cells were activated and transduced with a viral vector encoding the anti-CD19 CAR. For flow cytometry, about 1×10⁶ cells per 100 μL were incubated with 10 μL of biotin-conjugated anti-idiotype antibody followed by staining with a PE-conjugated streptavidin. As a positive control for surface expression of the CAR, cells were stained with an anti-EGFR antibody to verify expression of the EGFRt transduction marker, which was a surrogate of CAR expression. […] Cells were gated on CD3⁺ CD4⁺/CD8⁺ PBMCs and fluorescence signal was determined. […] To confirm the antibodies were specific for the scFv derived from the anti-CD19 antibody derived from FMC63, similar experiments were performed on cells transduced with an anti-CD19 CAR derived from SJ25C1 as described in Example 1. […] Anti-idiotype antibody clones B-1 (anti-ID B-1) and B-2 (anti-ID B-2) were selected for further characterization.

For test [3], the target named is T3, human Fc-fusion protein containing the FMC63-derived scFv portion of the CAR (biotinylated ECD fusion protein … (biotinylated (capture form))); sulfo-tagged (detection form)).
T3 construct: also called FMC63-derived Fc-scFv fusion; not shown: human Fc
Nature of the test: bridge assay, biotinylated scFv-Fc on streptavidin plate, sulfo-tagged scFv-Fc detection, ECL (MSD). From the text:
A bridge anti-therapeutic antibody (ATA) assay was developed to detect the presence or absence of antibodies, in serum of treated subjects, recognizing administered anti-CD19 CARs. Certain anti-ID antibodies described in Examples 1-3 were used as positive controls and to validate the ability of the assay to detect the presence of such antibodies.
A biotinylated human Fc-fusion protein (biotinylated ECD fusion protein) was used, containing an scFv portion of the CAR with variable regions derived from FMC63 (set forth in SEQ ID NO:34). The biotinylated ECD fusion protein was added to streptavidin-coated wells; the plates were incubated under conditions to allow binding of the fusion protein, and washed. To the biotinylated fusion protein-coated wells, various concentrations of anti-ID B-1 or anti-ID B-2 were added to the wells, and allowed to incubate under conditions to allow specific binding of the antibody. After washing, a sulfo-tagged version of the ECD fusion protein (sulfo-ECD fusion protein) containing the FMC63-derived Fc-scFv fusion. The wells were washed and an electrochemiluminescence (ECL) signal was read on a Meso Scale Discovery (MSD) Sector Imager.

Test [4] addresses recombinant soluble extracellular domain (ECD) portion of the anti-CD19 (SJ25C1-derived) CAR (human). Nature of the test: ELISA on the recombinant soluble ECD portion; A-1 is the one named clone of the five. Background: An ELISA detects its analyte on a solid surface through an enzyme-linked reagent.
Test [5] concerns the target T1, anti-CD19 (FMC63-derived) chimeric …. Nature of the test: inferred from a T cell proliferation assay with plate-bound antibody. How it is done:
For proliferation studies, engineered T cells were labeled with 50 nM carboxyfluorescein succinimidyl ester (CFSE) or CELL TRACE VIOLET (CTV) dye. Where relevant, expression of the surrogate EGFRt marker was detected by staining with an anti-EGFR antibody. Cells were seeded at a fixed number of cells per well in wells previously coated with 10, 5, 2.5, or 1.25 μg/ml of OKT3 (anti-CD3 antibody), or of anti-idiotype antibodies recognizing SJ25C1 and FMC63 (anti-ID A-land anti-ID B-1, respectively) in sodium carbonate/bicarbonate buffer (pH 9.0) overnight. Cells seeded in wells with no antibody coating were included as negative controls. The cells were cultured for 4 days and assessed for viability, proliferation, and expression of CD69 and CD25.
Proliferation of anti-CD19 (SJ25C1 or FMC63) CAR− expressing T cells was assessed by dye dilution using flow cytometry. The percent of CD3⁺/CFSE® w cells observed following stimulation of anti-CD19 (SJ25C1) CAR− expressing T cells with anti-ID A-1 is shown in FIG. 2A. The percent of CD3⁺/EGFR+/CFSE® W cells observed following stimulation of anti-CD19 (FMC63) CAR− expressing T cells with anti-ID B-1 is shown in FIG. 2B. […]

Chain of recombinant soluble extracellular domain (ECD) portion of the anti-CD19 (SJ25C1-derived) CAR (human) (chain, as listed by the source): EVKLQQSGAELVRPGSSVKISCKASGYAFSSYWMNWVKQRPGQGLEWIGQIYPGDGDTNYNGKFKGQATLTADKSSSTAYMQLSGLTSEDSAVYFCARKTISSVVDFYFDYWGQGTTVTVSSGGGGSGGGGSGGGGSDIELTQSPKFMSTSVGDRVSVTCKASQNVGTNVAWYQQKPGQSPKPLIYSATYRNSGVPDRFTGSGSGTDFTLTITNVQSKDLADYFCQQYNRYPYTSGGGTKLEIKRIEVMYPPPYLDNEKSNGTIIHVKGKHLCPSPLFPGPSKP

B1: anti-idiotype antibody clone B-2 (anti-ID B-2) (antibody, mouse IgG1, kappa, V domains shown)
VH: QVQLQQPGAELVRPGASVKLSCKTSGYSFTRYWMNWVKQRPGQGLEWIGMIHPSDSETRLNQKFKDKATLTVDNSSSTAYMQLSSPTSEDSAVYYCASIYYEEAWGQGTLVTVSA
VL: DIQMTQSPASLSASVGETVTITCRASGNIHNYLAWYQQKQGKSPQLLVYNAKTLADSVPSRFSGSGSGTQYSLKINSLQPEDFGSYYCQHFWSTPYTFGGGTKLEIKR
notes: Mouse hybridoma antibody
For B1, the values for the binding result in test [1], in test [2] and in test [3] were “binds”, “no binding” and “binds”, respectively.

B2: anti-idiotype antibody clone A-1 (anti-ID A-1) (antibody, mouse IgG1, kappa, V domains shown)
VH: QVQLQQPGSELVRPGGSVKLSCKASDYTFTSYWMHWVRQRPGQGLEWIGNIYPGSGGTNYDEKFKRKATLTVDTSSSTAYMQLRSLTSEDSAVYYCTREVTTVAYYYSMDYWGQGTSVTVSS
VL: DIQMTQTTSSLSASLGDRVTISCRASQDISNYLNWYQQKPDGTVKLLIYYTSRLHSGVPSRFSGSGSGTDYSLTISNLEQEDIATYFCQQGKTVPFTFGSGTKLEIKR
notes: Mouse hybridoma antibody; also called SJ25C1-derived scFv-specific anti-idiotype antibody; SJ25C1-specific anti-idiotype antibody
In the case of B2, the binding result in test [4] was “binds”.

B3: anti-idiotype antibody clone B-1 (anti-ID B-1) (antibody, mouse IgG2a, kappa, V domains shown)
VH: EVQLQQSGPELVKPGASVKMSCKASGYTFTDYYMKWVKQCHGKSLEWIGDINPNNGGTDYNQNFKGKATLTVDKSSSTAYMQLNSLTSEDSAVYYCAREGNNYGSRDAMDYWGQGTSVTVSS
VL: QIVLTQSPALMSASPGEKVTMTCSASSGVIYMYWYQQKPRSSPKPWIYLTSNLASGVPARFSGSGSGTSYSLTISSMEAEDAATYYCQQWSSNPLTFGAGTKLELKR
notes: Mouse hybridoma antibody; also called FMC63-derived scFv-specific anti-idiotype antibody
With B3, the figures for the binding result in test [5], in test [2] and in test [3] were “binds”, “no binding” and “binds”, respectively.
